Experiment [1] has as its target T1, recombinant laminin α3 2928-3150 protein (linker domain and LG4 domain) (human, UniProt Q16787 2928-3150).
T1 construct: range 2928-3150; Made in HEK-293F cells; also called laminin alpha 3 LG domain recombinant protein
T1 sequence: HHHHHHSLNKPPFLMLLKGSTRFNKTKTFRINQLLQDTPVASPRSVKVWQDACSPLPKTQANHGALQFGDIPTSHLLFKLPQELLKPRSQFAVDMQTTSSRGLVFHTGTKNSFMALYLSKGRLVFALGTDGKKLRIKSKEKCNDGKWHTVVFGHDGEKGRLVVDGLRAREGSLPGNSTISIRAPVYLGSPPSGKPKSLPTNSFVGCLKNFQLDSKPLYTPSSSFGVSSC
The experiment can be described thus: SPR; α3 2928-3150 recombinant protein immobilised (~1000 RU), VEGF-A165 flowed at 0.325-10.4 nM; Langmuir fit [panel D]. The text has this:
(§1) Statistical analyses were done using the Mann-Whitney U test by comparing the signals obtained from the laminin domain- and the BSA-coated wells. *p<0.05, **p<0.01. […] A SPR chip was functionalized with the laminin α3₂₉₂₈₋₃₁₅₀ recombinant protein (˜1000 RU), and each GF was flowed over the chip at indicated concentrations. Curves represent the specific responses (in RU) to laminin. Experimental curves were fitted with Langmuir binding kinetics.
(§2) Because the GFs that bound to laminins have also been previously reported to bind to other ECM glycoproteins through HBDs, it was hypothesized that HBDs of laminins might be responsible for the interactions between GFs and laminin. To address this hypothesis, ELISA assays were repeated for VEGF-A165, PlGF-2 or FGF-2 in the presence of heparin added in excess (10 μM). […] To further confirm this, the inventors tested direct GF binding to the LG domains from human laminin α3, α4 and α5, within which HBDs of laminin were localized.
SPR analysis was performed as described previously². In brief, measurements were made with a Biacore 3000 SPR system (GE Healthcare). […] VEGF-A165, PDGF-BB, or PlGF-2 was flowed at increasing concentrations in the running buffer at 20 μL/min. The sensor chip was regenerated with 50 mM NaOH for every cycle.
(In general: SPR reads the build-up and loss of mass on a sensor chip optically.)

The target of experiment [2] is T1, recombinant laminin α3 2928-3150 …. The experiment can be described thus: SPR, α3 2928-3150 immobilised, GF flowed, Langmuir fit. The procedure: as §1, with “Affinity of GFs against recombinant laminin LG domains. ELISA plates were coated with 1 μg/mL (A) α3₂₉₂₈₋₃₁₅₀, (B) α4₈₂₆₋₁₈₁₆, or (C) α5₃₀₂₆₋₃₄₈₂ and further incubated with 1 μg/mL of VEGF-A165, VEGF-A121, PlGF-2, PlGF-1, PDGF-BB, or FGF-2 solution. Bound GFs were detected using a specific antibody for each GF (n=4, mean±SEM). Statistical” for “Statistical”
as §2
SPR analysis was performed as described previously². […]

The next experiment deals with T2, laminin-521 (human, UniProt O15230 36-3695; P55268 33-1798; P11047 34-1609).
T2 construct: Full-length recombinant human laminin isoform (BioLamina); chains read from the isoform name
The experiment can be described thus: SPR; laminin-521 immobilised on the chip (~2000 RU), VEGF-A165 flowed at 10-100 nM; Langmuir fit. How it is done: A450 nm represents absorbance at 450 nm. BSA-coated wells served as negative controls (n=4, mean±SEM). Signals greater than 0.1 (grey box) are considered to be significant. […] Experimental curves were fitted with Langmuir binding kinetics.
The obtained binding curves were fitted with Langmuir binding kinetics to calculate specific dissociation constants (KD) (FIG. 1B).
SPR analysis was performed as described previously². In brief, measurements were made with a Biacore 3000 SPR system (GE Healthcare). […] VEGF-A165, PDGF-BB, or PlGF-2 was flowed at increasing concentrations in the running buffer at 20 μL/min. The sensor chip was regenerated with 50 mM NaOH for every cycle. Specific bindings of GFs to laminin were calculated by comparison to a non-functionalized channel used as a reference. Experimental results were fitted with Langmuir binding kinetics using BIAevaluation software (GE Healthcare).

Experiment [3] deals with T3, recombinant human vWF A3 domain (human, UniProt P04275 1683-1874).
T3 construct: domain: A3
The experiment can be described thus: ELISA, domain coated 50 nM. The procedure: (§3) ELISA was performed as previously reported1. […] After blocking with 2% BSA solution containing PBS-T, 1 μg/mL of recombinant human VEGF-A121 (PeproTech), recombinant human VEGF-A145 (R & D Systems), or recombinant human VEGF-A165 (PeproTech) was added. Bound VEGF-A was detected with 1 μg/mL of mouse anti-human VEGF-A antibody (clone: 26503, R & D systems). After 60 min of incubation, horseradish peroxidase (HRP) conjugated goat anti-mouse antibody (1:2000 dilution, Dako) was added and incubated for another 60 min. Color development and the absorbance measurement were done as described above.
(ELISA stands for enzyme-linked immunosorbent assay.)

Experiment [4] addresses T4, recombinant human vWF A2 domain (human, UniProt P04275 1498-1665).
T4 construct: domain: A2
The experiment can be described thus: ELISA, domain coated 50 nM. How it is done:
as §3

For a further experiment, the target named is T5, human plasma-derived vWF (human, UniProt P04275 764-2813).
T5 construct: mature; also called plasma-derived purified vWF; von Willebrand factor
The experiment can be described thus: SPR, vWF immobilised, GF flowed, 1:1 Langmuir fit. How it is done: A450 nm represents absorbance at 450 nm. Signals from VEGF-A121 served as a baseline, and bovine serum albumin (BSA) served as a negative control (n=4, mean±SD). […] Experimental curves were fitted with (C) 1:1 Langmuir fit model and (D) heterogeneous ligand-parallel reactions binding.
SPR assays were performed as described previously2. In brief, measurements were made with a Biacore X100 SPR system or Biacore 3000 SPR system (GE Healthcare). […] Recombinant human VEGF-A165, VEGF-A121, or PDGF-BB was flowed at increasing concentrations in the running buffer at 30 μL/min. The sensor chip was regenerated with glycine at pH 2 for every cycle.

We go through one molecule from patent publication US20240092867A1 (UNIVERSITY OF CHICAGO, published 2024).

B1: vascular endothelial growth factor (VEGF)-A165 (ligand, human, UniProt P15692-4 27-191, looked up)
chain: APMAEGGGQNHHEVVKFMDVYQRSYCHPIETLVDIFQEYPDEIEYIFKPSCVPLMRCGGCCNDEGLECVPTEESNITMQIMRIKPHQGQHIGEMSFLQHNKCECRPKKDRARQENPCGPCSERRKHLFVQDPQTCKCSCKNTDSRCKARQLELNERTCRCDKPRR
notes: mature; Purchased in mature form, not glycosylated
Consider B1, for which the Kd turned out to be 1.47 nM in experiment [1], 1.2 nM in experiment [2], 5.78 nM with laminin-521 and 27 nM with human plasma-derived vWF. Besides, the values for the koff (in experiment [1]; with laminin-521) were 0.00663 s⁻¹ and 0.00324 s⁻¹, respectively. Also, the association rate constant (kon) in experiment [1] amounted to 4.52e+06 M⁻¹ s⁻¹; with laminin-521, 561000 M⁻¹ s⁻¹. In addition, the binding result in experiment [3] and in experiment [4] was “no binding (tested: 1 µg/mL)” each time.

Broadly, the Kd is the concentration at which binding is half-saturated. Usually koff stands for a measure of how fast the partners let go of each other. What is called kon is the second-order rate constant of association.
